In patent publication US20220348648A1 (published 2022) one finds Kd data, which are given here for 4 molecules.

Like-named read-outs stand apart in the source and are kept apart here.

Common to all, as to test: BLI (Octet HTX)
Test [1] has as its target T1, Recombinant Human DLL3 Protein (amino acids Ala27-Ala479, Cat #9749-DL, R&D Systems) (UniProt Q9NYJ7 27-479).
T1 chain: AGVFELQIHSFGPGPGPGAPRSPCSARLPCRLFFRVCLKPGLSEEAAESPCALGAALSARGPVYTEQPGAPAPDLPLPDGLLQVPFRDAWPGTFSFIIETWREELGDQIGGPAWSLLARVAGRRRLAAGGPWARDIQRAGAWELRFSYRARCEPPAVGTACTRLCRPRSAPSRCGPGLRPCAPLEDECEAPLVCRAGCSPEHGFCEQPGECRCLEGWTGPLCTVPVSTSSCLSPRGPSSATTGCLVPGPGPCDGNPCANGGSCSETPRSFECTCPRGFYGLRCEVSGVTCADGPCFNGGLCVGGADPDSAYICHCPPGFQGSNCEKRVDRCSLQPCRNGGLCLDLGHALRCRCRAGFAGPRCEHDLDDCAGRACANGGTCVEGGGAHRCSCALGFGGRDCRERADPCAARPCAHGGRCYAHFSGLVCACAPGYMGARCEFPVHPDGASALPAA

For test [2], the target named is T1, Recombinant Human DLL3 Protein (amino …).
Test [3] has the same target.

B1: 6-G23-F (antibody, V domains shown)
VH: QVQLVQSGAEVKKPGASVKVSCKASGYTFTSYYIHWVRQAPGQGLEWMGIIDPSDGSTNYAQKFQGRVTMTRDTSTSTVYMELSSLRSEDTAVYYCARDREYNYYGLDVWGQGTTVTVSS
VL: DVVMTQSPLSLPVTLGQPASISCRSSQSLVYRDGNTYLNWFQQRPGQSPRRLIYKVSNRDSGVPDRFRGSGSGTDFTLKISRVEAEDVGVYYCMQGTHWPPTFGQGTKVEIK
For the molecule B1, the equilibrium dissociation constant (Kd) in test [1] and in test [2] was 0.16 nM throughout.

B2: 10-O18-A (antibody, V domains shown)
VH: QVQLQESGPGLVKPSETLSLTCTVSGGSINSYYWSWIRQPPGKGLEWIGYIFYSGITNYNPSLKSRVTISLDTSKNQFSLKLSSVTAADTAVYYCARIGVAGFYFDYWGQGTLVTVSS
VL: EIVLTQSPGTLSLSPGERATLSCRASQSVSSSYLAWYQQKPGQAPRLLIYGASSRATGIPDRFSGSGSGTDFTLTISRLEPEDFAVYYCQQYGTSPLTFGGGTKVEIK
In the case of B2, the Kd (commonly the constant that tells how readily two partners part at equilibrium) in test [2] stood at 0.62 nM; in test [3] it was 0.602 nM.

B3: 2-C8-A (antibody, V domains shown)
VH: EVQLVESGGGLVQPGGSQRLSCAASGFTFSSYWMNWVRQAPGKGLEWVANIKEDGSEKYYVDSVKGRFTISRDNAKNSLYLQMNSLRAEDTAVYYCARDPGWAPFDYWGQGTLVTVSS
VL: DIQMSQSPSSLSASVGDRVTITCRASQGISNYLAWFQQKPGKAPKSLIYAASSLQSGVPSKFSGSGSGTDFTLAISSLQPEDFATYYCQQYNSFPYTFGQGTTLEIK
On to B3, for which the Kd in test [2] and in test [3] was 0.668 nM each time.

B4: 7-I1-B (antibody, V domains shown)
VH: EVQLVESGGGLVKPGGSLRLSCAASGFTFSNTWMSWVRQAPGKGLEWVGRIKSKSDGGTTDYAAPVKGRFTISRDDSKNTLYLQMNSLKTEDTAVYYCTQYYWNSFDYWGQGTLVTVSS
VL: not shown
With B4, the Kd was determined as 0.686 nM in test [1] and 0.68 nM in test [2].
